The values that follow are results of earlier work, collected in article PMC3094721.

In the series the target is ChemR23 (Homo sapiens) (UniProt Q99788). Put plainly: radioligand.
Sequence of ChemR23 (Homo sapiens) (Q99788 whole entry): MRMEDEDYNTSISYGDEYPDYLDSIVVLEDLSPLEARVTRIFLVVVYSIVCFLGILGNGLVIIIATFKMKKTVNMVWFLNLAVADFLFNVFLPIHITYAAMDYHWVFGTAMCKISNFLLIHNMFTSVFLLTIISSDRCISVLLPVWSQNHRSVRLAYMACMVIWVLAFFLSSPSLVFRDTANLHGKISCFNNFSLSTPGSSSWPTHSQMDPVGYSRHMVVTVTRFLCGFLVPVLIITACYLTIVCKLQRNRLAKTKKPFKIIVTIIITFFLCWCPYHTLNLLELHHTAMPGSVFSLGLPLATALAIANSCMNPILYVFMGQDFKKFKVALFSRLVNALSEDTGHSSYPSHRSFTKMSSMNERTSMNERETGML

Sequence of chemerin peptide (Q99969 21-157): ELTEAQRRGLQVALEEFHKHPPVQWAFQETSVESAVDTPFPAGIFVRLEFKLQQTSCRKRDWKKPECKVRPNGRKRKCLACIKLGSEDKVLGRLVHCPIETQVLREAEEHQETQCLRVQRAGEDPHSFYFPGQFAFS

For the substance chemerin peptide (from UniProt Q99969), the Ki (usually the equilibrium dissociation constant of an inhibitor or competing ligand from its target) was 429 nM.
